# Assay results taken from patent US7927849B2, “Laccase enzyme and use thereof” (AB Enzymes OY, priority 2004, dated 2011).
# B1: TaLcc1: Recombinant Thielavia arenaria ALKO4197 laccase 1 (SEQ ID NO: 12) produced in Trichoderma reesei strains RF5597/RF5598 (protein)
# chain: MKSWAAAVALMVGILSPHAAAAPPANPVQRDMLQVLEARQSGPTCNTPSNRACWTNGFDINTDYEVSTPNTGRTVAYQLTLTEKENWIGPDGVLKNVVMLVNDKIIGPTIRANWGDNIEVTVINNLKTNGTSMHWHGLRQLGNVFNDGANGVTECPIPPKGGRKTYKFRATQYGTSWYHSHFSAQYGNGVVGTIQIDGPASLPYDIDLGVFPLMDYYYRSADELVHFTQSNGAPPSDNVLFNGTARHPETGAGQWYNVTLTPGKRHRLRIINTSTDNHFQVSLVGHNMTVIATDMVPVNAFTVSSLFLAVGQRYDVTIDANSPVGNYWFNVTFGDGLCGSSNNKFPAAIFRYQGAPATLPTDQGLPVPNHMCLDNLNLTPVVTRSAPVNNFVKRPSNTLGVTLDIGGTPLFVWKVNGSAINVDWGKPILDYVMSGNTSYPVSDNIVQVDAVDQWTYWLIENDPTNPIVSLPHPMHLHGHDFLVLGRSPDELPSAGVRHIFDPAKDLPRLKGNNPVRRDVTMLPAGGWLLLAFKTDNPGAWLFHCHIAWHVSGGLSVDFLERPNDLRTQLNSNAKRADRDDFNRVCREWNAYWPTNPFPKIDSGLRHRFVEESEWMVR
# modifications: Thielavia arenaria ALKO4197; (1)..(617) Deduced amino acid sequence of Thielavia arenaria ALKO4197 laccase 1 (Ta Lcc1)
# Legend:
# [1] = Specific activity on DMP; type: biochemical; conditions: 25 mM MES buffer, pH 5.5
# Description: (§1) Specific activities of the purified Thielavia laccase were determined towards different laccase substrates.
# [2] = Denim bleaching at different pH-values (Launder Ometer); conditions: 50° C.; for Increase of L* / L* after laccase treatment / b* after laccase treatment: 200 nkat/g, 30 min
# Description: Lee Cooper jeans (Hamilton, 111-1060-55522-65, MASI Company Oy, Finland, former name M.A.S.I. jeans Oy) that were made of ring spun yarn in warp and open-end yarn in weft and were previously desized and treated with neutral ECOSTONE® cellulase were used as a test material. Laccase treatments were performed in LP-2 Launder Ometer as follows. About 10 g of denim swatches (15×14 cm) were loaded into 1.2 liter containers containing 200 ml Mc Ilvaine's citrate phosphate buffer pH 5, 6 or 7 and the containers were temperated. Enzyme with or without the mediator (methyl syringate, DeniLite II Assist, Novozymes) was added. Enzyme was dosed 200 nkat/g and the mediator 10 mg/g on the weight of fabric. […] The Launder Ometer was run at 50° C. for 30 min and after that the temperature in Launder was raised to 80° C. for 10 min. The swatches were rinsed carefully with warm water, dried half-dry in a tumbler and after that air dried.
# The bleaching effect was evaluated by measuring the colour as reflectance values with the Minolta Spectrophotometer CM 1000 (Minolta Co.) using L*a*b* color space coordinates (illuminant D65/2°). The colour from both sides of the swatches was measured before and after the laccase treatment. Each measurement was the average of several, at least ten, measurements.
# [3] = Denim bleaching, effect of enzyme dosage (Wascator); conditions: 60° C., pH 6
# Description: Lee Cooper Jeans previously washed with ECOSTONE® cellulases (Example 7) were treated with a TaLcc1 laccase product from Trichoderma strain RF5598 and DeniLite Base from Novozymes using different laccase dosages. The laccase treatments were performed with Electrolux's Wascator FOM 71 CLS washer extractor under optimal conditions for each enzyme, shown in Table 13. Methyl syringate (Example 7) was used as a mediator. Laccase was inactivated after draining by raising the pH above 11 by NaOH (10 min, 60° C.) and rinsing 3 times. The fabrics were dried in a tumbler.
# The bleaching effect was evaluated by measuring the colour after laccase treatment as reflectance values (as in Example 7) and comparing the values to previously measured values after cellulase treatment.
# [4] = Specific activity on ABTS; type: biochemical; conditions: 25 mM succinate buffer pH 4.5, 25° C.
# Description: The activity assay was carried out in accordance with the method developed by Niku-Paavola et al. (1988). The sample was diluted with 0.025 M succinate buffer, pH 4.5. […] The activity is expressed as nano katals.
# as §1
# [5] = Specific activity on guaiacol; type: biochemical; conditions: 25 mM MES buffer, pH 5.5
# Description: as §1
# [6] = Denim bleaching at different temperatures (Launder Ometer); conditions: 200 nkat/g, 30 min, pH 6
# Description: The test system and denim were as in Example 7, except that the conditions during the laccase and mediator treatment in Launder were 30 min, pH 6 and temperature 30-80° C. Also, the enzyme was inactivated by an alkaline treatment instead of raising the temperature in Launder as follows. After removing swatches from the containers they were soaked in warm water containing NaOH (pH 11.5) for 10 min and rinsed carefully with warm water. The swatches were dried half-dry in a tumbler and after that air dried. The bleaching effect was evaluated by measuring the colour as reflectance values as in Example 7.
# [7] = 20 nkat/g, mediator 1 mg/g, 30 min
# [8] = 20 nkat/g, mediator 1 mg/g, 60 min
# [9] = 100 nkat/g, mediator 5 mg/g, 30 min
# [10] = 100 nkat/g, mediator 5 mg/g, 60 min
molecule,measurement,setting,value
B1,Specific activity on DMP,[1],285 nkat/mg
same,Increase of L*,"[2]; mediator 0 mg/g, pH 5",0.14
same,L* after laccase treatment,"[2]; mediator 0 mg/g, pH 5",28.22
same,b* after laccase treatment,"[2]; mediator 0 mg/g, pH 5",−18.35
same,Increase of L*,"[2]; mediator 0 mg/g, pH 6",0.82
same,L* after laccase treatment,"[2]; mediator 0 mg/g, pH 6",29.58
same,b* after laccase treatment,"[2]; mediator 0 mg/g, pH 6",−18.38
same,Increase of L*,"[2]; mediator 0 mg/g, pH 7",0.37
same,L* after laccase treatment,"[2]; mediator 0 mg/g, pH 7",27.80
same,b* after laccase treatment,"[2]; mediator 0 mg/g, pH 7",−18.50
same,Increase of L*,"[2]; mediator 10 mg/g, pH 5",13.52
same,L* after laccase treatment,"[2]; mediator 10 mg/g, pH 5",42.04
same,b* after laccase treatment,"[2]; mediator 10 mg/g, pH 5",−14.78
same,Increase of L*,"[2]; mediator 10 mg/g, pH 6",21.19
same,L* after laccase treatment,"[2]; mediator 10 mg/g, pH 6",48.97
same,b* after laccase treatment,"[2]; mediator 10 mg/g, pH 6",−12.36
same,Increase of L*,"[2]; mediator 10 mg/g, pH 7",16.92
same,L* after laccase treatment,"[2]; mediator 10 mg/g, pH 7",44.71
same,b* after laccase treatment,"[2]; mediator 10 mg/g, pH 7",−14.43
same,optimum pH in denim bleaching,[2]; pH 5 to 7 tested,6
same,Increase of L*,[3]; [7],12.24
same,L* after laccase treatment,[3]; [7],40.61
same,b* after laccase treatment,[3]; [7],−16.16
same,Increase of L*,[3]; [8],15.09
same,L* after laccase treatment,[3]; [8],42.72
same,b* after laccase treatment,[3]; [8],−15.61
same,Increase of L*,[3]; [9],21.88
same,L* after laccase treatment,[3]; [9],49.84
same,b* after laccase treatment,[3]; [9],−13.75
same,Increase of L*,[3]; [10],25.68
same,L* after laccase treatment,[3]; [10],53.46
same,b* after laccase treatment,[3]; [10],−11.64
same,Specific activity on ABTS,[4],910 nkat/mg
same,Specific activity on guaiacol,[5],61 nkat/mg
same,Increase of L*,"[6]; mediator 0 mg/g, 80° C.",0.64
same,L* after laccase treatment,"[6]; mediator 0 mg/g, 80° C.",30.27
same,b* after laccase treatment,"[6]; mediator 0 mg/g, 80° C.",−18.62
same,Increase of L*,"[6]; mediator 10 mg/g, 30° C.",4.10
same,L* after laccase treatment,"[6]; mediator 10 mg/g, 30° C.",33.68
same,b* after laccase treatment,"[6]; mediator 10 mg/g, 30° C.",−19.17
same,Increase of L*,"[6]; mediator 10 mg/g, 40° C.",8.68
same,L* after laccase treatment,"[6]; mediator 10 mg/g, 40° C.",37.49
same,b* after laccase treatment,"[6]; mediator 10 mg/g, 40° C.",−18.64
same,Increase of L*,"[6]; mediator 10 mg/g, 50° C.",14.59
same,L* after laccase treatment,"[6]; mediator 10 mg/g, 50° C.",42.99
same,b* after laccase treatment,"[6]; mediator 10 mg/g, 50° C.",−17.06
same,Increase of L*,"[6]; mediator 10 mg/g, 60° C.",18.42
same,L* after laccase treatment,"[6]; mediator 10 mg/g, 60° C.",47.56
same,b* after laccase treatment,"[6]; mediator 10 mg/g, 60° C.",−14.55
same,Increase of L*,"[6]; mediator 10 mg/g, 70° C.",17.85
same,L* after laccase treatment,"[6]; mediator 10 mg/g, 70° C.",46.94
same,b* after laccase treatment,"[6]; mediator 10 mg/g, 70° C.",−13.82
same,Increase of L*,"[6]; mediator 10 mg/g, 80° C.",9.85
same,L* after laccase treatment,"[6]; mediator 10 mg/g, 80° C.",39.24
same,b* after laccase treatment,"[6]; mediator 10 mg/g, 80° C.",−15.74
